This note sets out measurements from article PMC9643335.

The target of the assay is Trypanosoma brucei ADAT3 (Trypanosoma brucei). The assay can be described thus: cryo-EM structure; TbADAT2/3 heterodimer co-expressed in Hi5 cells, purified via the His tag on TbADAT3 (1 M KCl wash), tag cleaved, SEC; mixed with in vitro transcribed TbtRNA-Thr(CGU) in 20 mM Hepes pH 7.5, 50 mM NaCl, 2 mM MgCl2, 0.5 mM TCEP, SEC, vitrified.

A word on the stoichiometry N: it is the number of molecules, sites or subunits per partner or assembly. In turn, “Trypanosoma brucei ADAT2 (A87G/C117S) (enzyme)” registered a stoichiometry N of 1.
